In patent US20220298260A1 (MYTHIC THERAPEUTICS, published 2022):
Positions count from the first letter of the chain named. Blank lines part the entries; values can stand above or below the binder they belong to.

Molecular target: T1, FOLR1 (R&D Systems, Cat #5646-FR) (human, UniProt P15328 25-233)
T1 construct: Bought soluble protein; also called Folate Receptor 1
Assay: BLI, IgG on anti-human Fc sensor, 50 nM FOLR1

T1 sequence (P15328 25-233 limits assumed): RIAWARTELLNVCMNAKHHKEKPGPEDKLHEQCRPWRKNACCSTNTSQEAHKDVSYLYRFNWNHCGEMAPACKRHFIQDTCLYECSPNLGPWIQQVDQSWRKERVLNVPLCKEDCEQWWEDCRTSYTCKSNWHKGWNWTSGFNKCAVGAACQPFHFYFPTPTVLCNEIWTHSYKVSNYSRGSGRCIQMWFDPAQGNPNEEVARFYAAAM

B1: MYT0615 (antibody, V domains shown)
VH: QVQLVQSGAEVVKPGASVKISCKASGYTFTGYFMNWVKQSPGQSLEWIGRIHPYHGDTFYNQKFQGKATLTVDKSSNTAHMELLSLTSEDFAVYYCTRYDGSRAMDYWGQGTTVTVSS
VL: DIVLTQSPLSLAVSLGQPAIISCKASQSVSFAGTSLMHWYHQKPGQQPRLLIYRASNLEAGVPDRFSGSGSKTDFTLTISPVEAEDAATYYCQQSREYPYTFGGGTKLEIK
notes: IgG
binding result: binds

B2: MYT1160 (antibody, V domains shown)
VH: B1 VH with Y27H, H55D, T58H, F59H
VL: B1 VL
notes: IgG
binding result: binds

B3: MYT1579 (antibody, V domains shown)
VH: B1 VH with H55D
VL: B1 VL with E59H
notes: IgG
binding result: binds

B4: MYT1573 (antibody, V domains shown)
VH: B1 VH with H55D
VL: B1 VL with H38A
notes: IgG
binding result: binds

B5: MYT0630 (antibody, V domains shown)
VH: B1 VH with H55D, D100H
VL: B1 VL
notes: IgG
binding result: binds

B6: MYT0627 (antibody, V domains shown)
VH: B1 VH with H55D, T97H
VL: B1 VL
notes: IgG
binding result: binds

B7: MYT1566 (antibody, V domains shown)
VH: B1 VH with H55D
VL: B1 VL with F31H
notes: IgG
binding result: binds

B8: MYT1156 (antibody, V domains shown)
VH: B1 VH with A24H, Y54H, H55D, F59H
VL: B1 VL
notes: IgG
binding result: binds

B9: MYT1576 (antibody, V domains shown)
VH: B1 VH with H55D
VL: B1 VL with S56H
notes: IgG
binding result: binds

B10: MYT0637 (antibody, V domains shown)
VH: B1 VH with H55D, Y107H
VL: B1 VL
notes: IgG
binding result: binds

B11: MYT0626 (antibody, V domains shown)
VH: B1 VH with H55D, G66H
VL: B1 VL
notes: IgG
binding result: binds

B12: MYT1569 (antibody, V domains shown)
VH: B1 VH with H55D
VL: B1 VL with T34H
notes: IgG
binding result: binds

B13: MYT0636 (antibody, V domains shown)
VH: B1 VH with H55D, D106H
VL: B1 VL
notes: IgG
binding result: binds

B14: MYT1158 (antibody, V domains shown)
VH: B1 VH with Y27H, Y54H, H55D, T58H
VL: B1 VL
notes: IgG
binding result: binds

B15: MYT0635 (antibody, V domains shown)
VH: B1 VH with H55D, M105H
VL: B1 VL
notes: IgG
binding result: binds

B16: MYT0619 (antibody, V domains shown)
VH: B1 VH with H55D, F59H
VL: B1 VL
notes: IgG
binding result: binds

B17: MYT0625 (antibody, V domains shown)
VH: B1 VH with H55D, Q65H
VL: B1 VL
notes: IgG
binding result: binds

B18: MYT1562 (antibody, V domains shown)
VH: B1 VH with H55D
VL: B1 VL with Q27H
notes: IgG
binding result: binds

B19: MYT1567 (antibody, V domains shown)
VH: B1 VH with H55D
VL: B1 VL with A32H
notes: IgG
binding result: binds

B20: MYT1559 (antibody, V domains shown)
VH: B1 VH with H55D
VL: B1 VL with K24H
notes: IgG
binding result: binds

B21: MYT1159 (antibody, V domains shown)
VH: B1 VH with Y27H, Y54H, H55D, F59H
VL: B1 VL
notes: IgG
binding result: binds

B22: MYT1563 (antibody, V domains shown)
VH: B1 VH with H55D
VL: B1 VL with S28H
notes: IgG
binding result: binds

More lines, now with the values ahead:

binding result: binds
B23: MYT1157 (antibody, V domains shown)
VH: B1 VH with A24H, H55D, T58H, F59H
VL: B1 VL
notes: IgG

binding result: binds
B24: MYT1580 (antibody, V domains shown)
VH: B1 VH with H55D
VL: B1 VL with A60H
notes: IgG

binding result: binds
B25: MYT1155 (antibody, V domains shown)
VH: B1 VH with A24H, Y54H, H55D, T58H
VL: B1 VL
notes: IgG

binding result: binds
B26: MYT1570 (antibody, V domains shown)
VH: B1 VH with H55D
VL: B1 VL with S35H
notes: IgG

binding result: binds
B27: MYT0616 (antibody, V domains shown)
VH: B1 VH with H55D, G56H
VL: B1 VL
notes: IgG

binding result: binds
B28: MYT1577 (antibody, V domains shown)
VH: B1 VH with H55D
VL: B1 VL with N57H
notes: IgG

binding result: binds
B29: MYT0629 (antibody, V domains shown)
VH: B1 VH with H55D, Y99H
VL: B1 VL
notes: IgG

binding result: binds
B30: MYT1571 (antibody, V domains shown)
VH: B1 VH with H55D
VL: B1 VL with L36H
notes: IgG

binding result: binds
B31: MYT0624 (antibody, V domains shown)
VH: B1 VH with H55D, F64H
VL: B1 VL
notes: IgG

binding result: binds
B32: MYT1578 (antibody, V domains shown)
VH: B1 VH with H55D
VL: B1 VL with L58H
notes: IgG

binding result: binds
B33: MYT0621 (antibody, V domains shown)
VH: B1 VH with H55D, N61H
VL: B1 VL
notes: IgG

binding result: binds
B34: MYT0622 (antibody, V domains shown)
VH: B1 VH with H55D, Q62H
VL: B1 VL
notes: IgG

binding result: binds
B35: MYT0633 (antibody, V domains shown)
VH: B1 VH with H55D, R103H
VL: B1 VL
notes: IgG

binding result: binds
B36: MYT0632 (antibody, V domains shown)
VH: B1 VH with H55D, S102H
VL: B1 VL
notes: IgG

binding result: binds
B37: MYT1575 (antibody, V domains shown)
VH: B1 VH with H55D
VL: B1 VL with A55H
notes: IgG

binding result: binds
B38: MYT0628 (antibody, V domains shown)
VH: B1 VH with H55D, R98H
VL: B1 VL
notes: IgG

binding result: binds
B39: MYT0617 (antibody, V domains shown)
VH: B1 VH with H55D, D57H
VL: B1 VL
notes: IgG

binding result: binds
B40: MYT1565 (antibody, V domains shown)
VH: B1 VH with H55D
VL: B1 VL with S30H
notes: IgG

binding result: binds
B41: MYT0623 (antibody, V domains shown)
VH: B1 VH with H55D, K63H
VL: B1 VL
notes: IgG

binding result: binds
B42: MYT1574 (antibody, V domains shown)
VH: B1 VH with H55D
VL: B1 VL with R54H
notes: IgG

binding result: binds
B43: MYT0620 (antibody, V domains shown)
VH: B1 VH with H55D, Y60H
VL: B1 VL
notes: IgG

binding result: binds
B44: MYT0618 (antibody, V domains shown)
VH: B1 VH with H55D, T58H
VL: B1 VL
notes: IgG

binding result: binds
B45: MYT1568 (antibody, V domains shown)
VH: B1 VH with H55D
VL: B1 VL with G33H
notes: IgG

binding result: binds
B46: MYT1561 (antibody, V domains shown)
VH: B1 VH with H55D
VL: B1 VL with S26H
notes: IgG
